# Article PMC5173319 (2016)
# B1: Pyrobaculum calidifontis arcadin-2 (natural protein)
# chain: MDFPKVLLIRHFTEVLGMKYAGEGGEVLWFEEGLNRVAVGIYFTDLYEEAELYKRVGALMGLGASKVFLAVLPDALAFVDPRYFKANGVGLVVVDPAKGVDGVEVKIFARARPAAVEPLKIDAVKAALHEYLASELKRVEESLFEKVRRYVDQRVEEVKRALQAVEEAKRAAPPVQRAAAESAQEPRGGIGENEWVKILRSKR
# Tests used:
# [1] = target: T1, Pyrobaculum calidifontis crenactin (Pyrobaculum calidifontis, UniProt A3MWN5 1-432); assay: SPR; fast phase
# [2] = target: T1, Pyrobaculum calidifontis crenactin; assay: SPR; fast phase; remark: listed apart in the source
# [3] = target: T1, Pyrobaculum calidifontis crenactin; assay: SPR; slow phase
# [4] = target: T1, Pyrobaculum calidifontis crenactin; assay: SPR; slow phase; remark: listed apart in the source
# [5] = target: T1, Pyrobaculum calidifontis crenactin; assay: SPR
# [6] = target: T1, Pyrobaculum calidifontis crenactin; assay: SPR; remark: listed apart in the source
# T1 sequence (A3MWN5 whole entry): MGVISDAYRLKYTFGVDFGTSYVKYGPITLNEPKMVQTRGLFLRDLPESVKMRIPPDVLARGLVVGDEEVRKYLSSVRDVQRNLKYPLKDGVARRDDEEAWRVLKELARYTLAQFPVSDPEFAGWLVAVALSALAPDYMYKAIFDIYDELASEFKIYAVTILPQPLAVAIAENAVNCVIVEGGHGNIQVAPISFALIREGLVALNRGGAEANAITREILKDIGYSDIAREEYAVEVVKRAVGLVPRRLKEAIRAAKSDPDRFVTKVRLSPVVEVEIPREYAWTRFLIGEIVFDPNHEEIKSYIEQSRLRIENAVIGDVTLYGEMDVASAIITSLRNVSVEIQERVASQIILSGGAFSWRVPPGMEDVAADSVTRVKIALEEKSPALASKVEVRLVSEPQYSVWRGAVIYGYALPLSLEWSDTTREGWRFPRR
binder,measurement,setting,value
B1,koff,[1],0.019 s⁻¹
same,Kd,[2],24 nM
same,Kd,[3],59 nM
same,koff,[4],0.0034 s⁻¹
RGGIGENEWVKILRSKR [arcadin-2 C-terminal peptide (residues 187-203)],Kd,[5],9 nM
same,koff,[6],0.019 s⁻¹
